Substitutions are numbered along the chain they refer to.
B1: CE115HA000/GLS3000 S56A (antibody, IgG1, name in Kabat numbering, V domains shown)
VH: QVQLVESGGGVVQPGRSLRLSCAASGFTFSNAWMHWVRQAPGKGLEWVAQIKAKSNNYATYYAESVKGRFTISRDDSKNSLYLQMNSLKTEDTAVYYCRYVHYGAYYGVDAWGQGTTVTVSS
VL: DIVMTQSPLSLPVTPGEPASISCRSSQSLVHSNRNTYLHWYQQKPGQAPRLLIYKVSNRFAGVPDRFSGSGSGTDFTLKISRVEAEDVGVYYCGQGTQVPYTFGQGTKLEIK
notes: one-arm IgG1
B2: CE115HA000/GLS3000 V94D (antibody, IgG1, name in Kabat numbering, V domains shown)
VH: B1 VH
VL: B1 VL with A61S, V99D
notes: one-arm IgG1
B3: CE115HA000/GLS3000 S56I (antibody, IgG1, name in Kabat numbering, V domains shown)
VH: B1 VH
VL: B1 VL with A61I
notes: one-arm IgG1
B4: CE115HA000/GLS3000 T92A (antibody, IgG1, name in Kabat numbering, V domains shown)
VH: B1 VH
VL: B1 VL with A61S, T97A
notes: one-arm IgG1
B5: CE115HA000/GLS3000 T92D (antibody, IgG1, name in Kabat numbering, V domains shown)
VH: B1 VH
VL: B1 VL with A61S, T97D
notes: one-arm IgG1
B6: CE115HA000/GLS3000 T92E (antibody, IgG1, name in Kabat numbering, V domains shown)
VH: B1 VH
VL: B1 VL with A61S, T97E
notes: one-arm IgG1
B7: CE115HA000/GLS3000 S56G (antibody, IgG1, name in Kabat numbering, V domains shown)
VH: B1 VH
VL: B1 VL with A61G
notes: one-arm IgG1
B8: CE115HA000/GLS3000 S56N (antibody, IgG1, name in Kabat numbering, V domains shown)
VH: B1 VH
VL: B1 VL with A61N
notes: one-arm IgG1
B9: CE115HA000/GLS3000 S56D (antibody, IgG1, name in Kabat numbering, V domains shown)
VH: B1 VH
VL: B1 VL with A61D
notes: one-arm IgG1
B10: CE115HA000/GLS3000 T31N (antibody, IgG1, name in Kabat numbering, V domains shown)
VH: B1 VH
VL: B1 VL with T36N, A61S
notes: one-arm IgG1
B11: CE115HA000/GLS3000 S56Q (antibody, IgG1, name in Kabat numbering, V domains shown)
VH: B1 VH
VL: B1 VL with A61Q
notes: one-arm IgG1
B12: CE115HA000/GLS3000 V51D (antibody, IgG1, name in Kabat numbering, V domains shown)
VH: B1 VH
VL: B1 VL with V56D, A61S
notes: one-arm IgG1
B13: CE115HA000/GLS3000 S56Y (antibody, IgG1, name in Kabat numbering, V domains shown)
VH: B1 VH
VL: B1 VL with A61Y
notes: one-arm IgG1
B14: CE115HA000/GLS3000 S56E (antibody, IgG1, name in Kabat numbering, V domains shown)
VH: B1 VH
VL: B1 VL with A61E
notes: one-arm IgG1
B15: CE115HA000/GLS3000 S56T (antibody, IgG1, name in Kabat numbering, V domains shown)
VH: B1 VH
VL: B1 VL with A61T
notes: one-arm IgG1
B16: CE115HA000/GLS3000 V51I (antibody, IgG1, name in Kabat numbering, V domains shown)
VH: B1 VH
VL: B1 VL with V56I, A61S
notes: one-arm IgG1
B17: CE115HA000/GLS3000 V27cE (antibody, IgG1, name in Kabat numbering, V domains shown)
VH: B1 VH
VL: B1 VL with V30E, A61S
notes: one-arm IgG1
B18: CE115HA000/GLS3000 T31D (antibody, IgG1, name in Kabat numbering, V domains shown)
VH: B1 VH
VL: B1 VL with T36D, A61S
notes: one-arm IgG1
B19: CE115HA000/GLS3000 S56W (antibody, IgG1, name in Kabat numbering, V domains shown)
VH: B1 VH
VL: B1 VL with A61W
notes: one-arm IgG1
B20: CE115HA000/GLS3000 T31E (antibody, IgG1, name in Kabat numbering, V domains shown)
VH: B1 VH
VL: B1 VL with T36E, A61S
notes: one-arm IgG1
B21: CE115HA000/GLS3000 T31I (antibody, IgG1, name in Kabat numbering, V domains shown)
VH: B1 VH
VL: B1 VL with T36I, A61S
notes: one-arm IgG1
B22: CE115HA000/GLS3000 V51P (antibody, IgG1, name in Kabat numbering, V domains shown)
VH: B1 VH
VL: B1 VL with V56P, A61S
notes: one-arm IgG1
B23: CE115HA000/GLS3000 T31K (antibody, IgG1, name in Kabat numbering, V domains shown)
VH: B1 VH
VL: B1 VL with T36K, A61S
notes: one-arm IgG1
B24: CE115HA000/GLS3000 T92I (antibody, IgG1, name in Kabat numbering, V domains shown)
VH: B1 VH
VL: B1 VL with A61S, T97I
notes: one-arm IgG1
B25: CE115HA000/GLS3000 S56V (antibody, IgG1, name in Kabat numbering, V domains shown)
VH: B1 VH
VL: B1 VL with A61V
notes: one-arm IgG1
B26: CE115HA000/GLS3000 V27cP (antibody, IgG1, name in Kabat numbering, V domains shown)
VH: B1 VH
VL: B1 VL with V30P, A61S
notes: one-arm IgG1
B27: CE115HA000/GLS3000 T31P (antibody, IgG1, name in Kabat numbering, V domains shown)
VH: B1 VH
VL: B1 VL with T36P, A61S
notes: one-arm IgG1
B28: CE115HA000/GLS3000 S56K (antibody, IgG1, name in Kabat numbering, V domains shown)
VH: B1 VH
VL: B1 VL with A61K
notes: one-arm IgG1
B29: CE115HA000/GLS3000 S56P (antibody, IgG1, name in Kabat numbering, V domains shown)
VH: B1 VH
VL: B1 VL with A61P
notes: one-arm IgG1
B30: CE115HA000/GLS3000 T92P (antibody, IgG1, name in Kabat numbering, V domains shown)
VH: B1 VH
VL: B1 VL with A61S, T97P
notes: one-arm IgG1
B31: CE115HA000/GLS3000 T92L (antibody, IgG1, name in Kabat numbering, V domains shown)
VH: B1 VH
VL: B1 VL with A61S, T97L
notes: one-arm IgG1
B32: CE115HA000/GLS3000 V27cI (antibody, IgG1, name in Kabat numbering, V domains shown)
VH: B1 VH
VL: B1 VL with V30I, A61S
notes: one-arm IgG1
B33: CE115HA000/GLS3000 T92S (antibody, IgG1, name in Kabat numbering, V domains shown)
VH: B1 VH
VL: B1 VL with A61S, T97S
notes: one-arm IgG1
B34: CE115HA000/GLS3000 V27cY (antibody, IgG1, name in Kabat numbering, V domains shown)
VH: B1 VH
VL: B1 VL with V30Y, A61S
notes: one-arm IgG1
B35: CE115HA000/GLS3000 V27cL (antibody, IgG1, name in Kabat numbering, V domains shown)
VH: B1 VH
VL: B1 VL with V30L, A61S
notes: one-arm IgG1
B36: CE115HA000/GLS3000 S56R (antibody, IgG1, name in Kabat numbering, V domains shown)
VH: B1 VH
VL: B1 VL with A61R
notes: one-arm IgG1
B37: CE115HA000/GLS3000 V27cS (antibody, IgG1, name in Kabat numbering, V domains shown)
VH: B1 VH
VL: B1 VL with V30S, A61S
notes: one-arm IgG1
B38: CE115HA000/GLS3000 S56H (antibody, IgG1, name in Kabat numbering, V domains shown)
VH: B1 VH
VL: B1 VL with A61H
notes: one-arm IgG1
B39: CE115HA000/GLS3000 T92Y (antibody, IgG1, name in Kabat numbering, V domains shown)
VH: B1 VH
VL: B1 VL with A61S, T97Y
notes: one-arm IgG1
B40: CE115HA000/GLS3000 S56L (antibody, IgG1, name in Kabat numbering, V domains shown)
VH: B1 VH
VL: B1 VL with A61L
notes: one-arm IgG1
B41: CE115HA000/GLS3000 V51E (antibody, IgG1, name in Kabat numbering, V domains shown)
VH: B1 VH
VL: B1 VL with V56E, A61S
notes: one-arm IgG1
B42: CE115HA000/GLS3000 S56F (antibody, IgG1, name in Kabat numbering, V domains shown)
VH: B1 VH
VL: B1 VL with A61F
notes: one-arm IgG1
B43: CE115HA000/GLS3000 V51G (antibody, IgG1, name in Kabat numbering, V domains shown)
VH: B1 VH
VL: B1 VL with V56G, A61S
notes: one-arm IgG1
B44: CE115HA000/GLS3000 T97P (antibody, IgG1, name in Kabat numbering, V domains shown)
VH: B1 VH
VL: B1 VL with A61S, T102P
notes: one-arm IgG1
B45: CE115HA000/GLS3000 S56M (antibody, IgG1, name in Kabat numbering, V domains shown)
VH: B1 VH
VL: B1 VL with A61M
notes: one-arm IgG1
B46: CE115HA000/GLS3000 V27cD (antibody, IgG1, name in Kabat numbering, V domains shown)
VH: B1 VH
VL: B1 VL with V30D, A61S
notes: one-arm IgG1
B47: CE115HA000/GLS3000 V94A (antibody, IgG1, name in Kabat numbering, V domains shown)
VH: B1 VH
VL: B1 VL with A61S, V99A
notes: one-arm IgG1

target: T1, CD3 epsilon homodimer protein (UniProt P07766 23-126); experiment: SPR, antibody over immobilised CD3e homodimer;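 note: SPR at 25 °C with CD3 epsilon homodimer amine-coupled to a CM4 sensor chip and antibody flowed over as analyte in HBS-EP+ running buffer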
T1 construct: also called CD3 (CD3 epsilon)
T1 sequence (P07766 23-126): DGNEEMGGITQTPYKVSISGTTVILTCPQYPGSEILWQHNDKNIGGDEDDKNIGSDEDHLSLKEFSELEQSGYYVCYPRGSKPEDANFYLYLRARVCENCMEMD

| KD ratio to GLS3000 | Binder |
| --- | --- |
| 1.18 | B1 |
| 1.05 | B2 |
| 1.01 | B3 |
| 1.35 | B4 |
| 11.2 | B5 |
| 19.6 | B6 |
| 0.99 | B7 |
| 0.9 | B8 |
| 1.11 | B9 |
| 4.46 | B10 |
| 0.97 | B11 |
| 1.5 | B12 |
| 1.1 | B13 |
| 0.91 | B14 |
| 1.01 | B15 |
| 0.69 | B16 |
| 1.1 | B17 |
| 30.9 | B18 |
| 1.12 | B19 |
| 1.59 | B20 |
| 1.1 | B21 |
| 6 | B22 |
| 0.88 | B23 |
| 1.91 | B24 |

| KD ratio to GLS3000 | Binder |
| --- | --- |
| 0.94 | B25 |
| 3.71 | B26 |
| 10.8 | B27 |
| 1.21 | B28 |
| 0.98 | B29 |
| 26.7 | B30 |
| 1.61 | B31 |
| 1.03 | B32 |
| 0.81 | B33 |
| 1.25 | B34 |
| 0.81 | B35 |
| 1.15 | B36 |
| 3.04 | B37 |
| 0.96 | B38 |
| 2.55 | B39 |
| 1.03 | B40 |
| 0.88 | B41 |
| 1.12 | B42 |
| 0.83 | B43 |
| 3.35 | B44 |
| 0.93 | B45 |
| 3.21 | B46 |
| 1.05 | B47 |

Source: US20210388087A1 (Chugai, published 2021)
